Experimental data as given in the Immune Epitope Database (IEDB).

Assays:
Test in all cases: IEDB peptide-MHC binding, purified MHC/competitive/radioactivity; filed as Kd, often an IC50 or EC50 that approximates it; ≥ and ≤ were set here for values at or beyond the usual limits of such assays
HLA-A*33:01 = biological target: HLA-A*33:01
HLA-A*31:01 = biological target: HLA-A*31:01
HLA-A*03:01 = biological target: HLA-A*03:01
HLA-A*11:01 = biological target: HLA-A*11:01
HLA-A*68:01 = biological target: HLA-A*68:01
HLA-A*02:06 = biological target: HLA-A*02:06
HLA-A*02:03 = details: source organism: Dengue virus 4 Philippines/H241/1956
[1] = source organism: SARS coronavirus Tor2
[2] = source organism: Mammarenavirus choriomeningitidis
[3] = source organism: Vaccinia virus WR
[4] = source organism: Mammarenavirus whitewaterense
[5] = source organism: Vaccinia virus Copenhagen
[6] = source organism: Lymphocytic choriomeningitis virus (strain Armstrong)
[7] = source organism: Dengue virus 1 Brazil/97-11/1997

In the case of RQVVNVITTK, the Kd (HLA-A*33:01; [1]) is reported as at least 39600 nM, the Kd (HLA-A*31:01; [1]) is reported as 2670 nM and the Kd (HLA-A*03:01; [1]) is reported as 114 nM. The Kd (HLA-A*11:01; [1]) was 216 nM and the Kd (HLA-A*68:01; [1]) was 305 nM.

In the case of RVILAGPIPV, the Kd (HLA-A*02:06; source organism: Dengue virus 4 Philippines/H241/1956) is reported as 33.5 nM and the Kd (HLA-A*02:03) is reported as 8.4 nM.

SAYLISIFMH showed a Kd (HLA-A*33:01; [2]) of 2950 nM, a Kd (HLA-A*31:01; [2]) of 659 nM and a Kd (HLA-A*03:01; [2]) of 1230 nM. The Kd (HLA-A*11:01; [2]) was 5630 nM and the Kd (HLA-A*68:01; [2]) was at least 70100 nM.

SIENKHQRR was tested, and the Kd (HLA-A*33:01; [3]) was 696 nM, the Kd (HLA-A*31:01; [3]) was 165 nM and the Kd (HLA-A*03:01; [3]) was at least 23900 nM. The Kd (HLA-A*11:01; [3]) was 6370 nM and the Kd (HLA-A*68:01; [3]) was 627 nM.

SLENLDPDNK showed a Kd (HLA-A*33:01; [3]) of at least 22400 nM, a Kd (HLA-A*31:01; [3]) of 17000 nM and a Kd (HLA-A*03:01; [3]) of 2920 nM. For the same sequence, the Kd (HLA-A*11:01; [3]) was 6.89 nM and the Kd (HLA-A*68:01; [3]) was 1360 nM.

SLIDLQELGK gave a Kd (HLA-A*33:01; [1]) of 1400 nM, a Kd (HLA-A*31:01; [1]) of 75.9 nM and a Kd (HLA-A*03:01; [1]) of 183 nM. It also gave a Kd (HLA-A*11:01; [1]) of 178 nM and a Kd (HLA-A*68:01; [1]) of 94.5 nM.

For SLNSMYTRLR, the Kd (HLA-A*33:01; [3]) was 0.997 nM, the Kd (HLA-A*31:01; [3]) was 0.291 nM and the Kd (HLA-A*03:01; [3]) was 47.2 nM. For the same sequence, the Kd (HLA-A*11:01; [3]) was 1780 nM and the Kd (HLA-A*68:01; [3]) was 81.2 nM.

SQNPLAELK showed a Kd (HLA-A*33:01; [1]) of at least 48100 nM, a Kd (HLA-A*31:01; [1]) of 3700 nM and a Kd (HLA-A*03:01; [1]) of at least 22700 nM. The Kd (HLA-A*11:01; [1]) was 306 nM and the Kd (HLA-A*68:01; [1]) was at least 63100 nM.

Sequence SRIFEDLVWK has a Kd (HLA-A*33:01; [4]) of at least 59100 nM, a Kd (HLA-A*31:01; [4]) of 8380 nM and a Kd (HLA-A*03:01; [4]) of 872 nM. It also gave a Kd (HLA-A*11:01; [4]) of 620 nM and a Kd (HLA-A*68:01; [4]) of 572 nM.

SVKGLTPSK was tested, and the Kd (HLA-A*33:01; [1]) was 9270 nM, the Kd (HLA-A*31:01; [1]) was 171 nM and the Kd (HLA-A*03:01; [1]) was 7.56 nM. It also gave a Kd (HLA-A*11:01; [1]) of 13.2 nM and a Kd (HLA-A*68:01; [1]) of 180 nM.

SVLCVKKFY gave a Kd (HLA-A*33:01; [3]) of 12900 nM, a Kd (HLA-A*31:01; [3]) of 7980 nM and a Kd (HLA-A*03:01; [3]) of 13300 nM. It also gave a Kd (HLA-A*11:01; [3]) of 372 nM and a Kd (HLA-A*68:01; [3]) of 2100 nM.

SVLDIISSK was tested, and the Kd (HLA-A*33:01; [5]) was 4410 nM, the Kd (HLA-A*31:01; [5]) was 1670 nM and the Kd (HLA-A*03:01; [5]) was 23.4 nM. The Kd (HLA-A*11:01; [5]) was 6.72 nM and the Kd (HLA-A*68:01; [5]) was 184 nM.

For SYQYLIIQNR, the Kd (HLA-A*33:01; [6]) was 54.3 nM, the Kd (HLA-A*31:01; [6]) was 0.953 nM and the Kd (HLA-A*03:01; [6]) was 9780 nM. The Kd (HLA-A*11:01; [6]) was at least 69700 nM and the Kd (HLA-A*68:01; [6]) was 1690 nM.

TAVAKCNVNH was tested, and the Kd (HLA-A*33:01; [6]) was at least 66800 nM, the Kd (HLA-A*31:01; [6]) was at least 70000 nM and the Kd (HLA-A*03:01; [6]) was at least 70000 nM. For the same sequence, the Kd (HLA-A*11:01; [6]) was at least 69700 nM and the Kd (HLA-A*68:01; [6]) was at least 65300 nM.

Sequence TIRHMWSVVY has a Kd (HLA-A*33:01; [3]) of at least 70000 nM, a Kd (HLA-A*31:01; [3]) of at least 57000 nM and a Kd (HLA-A*03:01; [3]) of 294 nM. For the same sequence, the Kd (HLA-A*11:01; [3]) was 3080 nM and the Kd (HLA-A*68:01; [3]) was 2860 nM.

In the case of TLISLNSMY, the Kd (HLA-A*33:01; [3]) is reported as 15000 nM, the Kd (HLA-A*31:01; [3]) is reported as 8060 nM and the Kd (HLA-A*03:01; [3]) is reported as 155 nM. It also gave a Kd (HLA-A*11:01; [3]) of 282 nM and a Kd (HLA-A*68:01; [3]) of 46.8 nM.

TLYVKALTK was tested, and the Kd (HLA-A*33:01; [3]) was 15500 nM, the Kd (HLA-A*31:01; [3]) was 2920 nM and the Kd (HLA-A*03:01; [3]) was 1.93 nM. It also gave a Kd (HLA-A*11:01; [3]) of 23.9 nM and a Kd (HLA-A*68:01; [3]) of 185 nM.

TQHGTILIKV was tested, and the Kd (HLA-A*02:06; source organism: Dengue virus 3 Martinique/1243/1999) was 526 nM.

With TQIFEVYWY the Kd (HLA-A*33:01; [3]) was 10900 nM, the Kd (HLA-A*31:01; [3]) was 3800 nM and the Kd (HLA-A*03:01; [3]) was 1850 nM. For the same sequence, the Kd (HLA-A*11:01; [3]) was 353 nM and the Kd (HLA-A*68:01; [3]) was 733 nM.

TSSFREKSR gave a Kd (HLA-A*33:01; [3]) of 844 nM, a Kd (HLA-A*31:01; [3]) of 132 nM and a Kd (HLA-A*03:01; [3]) of at least 65000 nM. It also gave a Kd (HLA-A*11:01; [3]) of 5750 nM and a Kd (HLA-A*68:01; [3]) of 132 nM.

In the case of TSVDIETAIR, the Kd (HLA-A*33:01; [3]) is reported as 1440 nM, the Kd (HLA-A*31:01; [3]) is reported as 922 nM and the Kd (HLA-A*03:01; [3]) is reported as 2980 nM. It also gave a Kd (HLA-A*11:01; [3]) of 581 nM and a Kd (HLA-A*68:01; [3]) of 1.35 nM.

Sequence TVVIGTSKFY has a Kd (HLA-A*33:01; [1]) of 1240 nM, a Kd (HLA-A*31:01; [1]) of 1860 nM and a Kd (HLA-A*03:01; [1]) of 1100 nM. It also gave a Kd (HLA-A*11:01; [1]) of 809 nM and a Kd (HLA-A*68:01; [1]) of 1500 nM.

TYLGPLSCK showed a Kd (HLA-A*33:01; [6]) of 154 nM, a Kd (HLA-A*31:01; [6]) of 1690 nM and a Kd (HLA-A*03:01; [6]) of 165 nM. For the same sequence, the Kd (HLA-A*11:01; [6]) was 21.3 nM and the Kd (HLA-A*68:01; [6]) was 375 nM.

With VINAPIKEFK the Kd (HLA-A*33:01; [3]) was 83.8 nM, the Kd (HLA-A*31:01; [3]) was 227 nM and the Kd (HLA-A*03:01; [3]) was 4.87 nM. For the same sequence, the Kd (HLA-A*11:01; [3]) was 1.31 nM and the Kd (HLA-A*68:01; [3]) was 6.75 nM.

Sequence VMAFIAFLR has a Kd (HLA-A*33:01; [7]) of 4.68 nM, a Kd (HLA-A*31:01; [7]) of 1.33 nM and a Kd (HLA-A*03:01; [7]) of 38.5 nM. It also gave a Kd (HLA-A*11:01; [7]) of 171 nM and a Kd (HLA-A*68:01; [7]) of 4.51 nM.

VSLSAYIIR gave a Kd (HLA-A*33:01; [3]) of 4000 nM, a Kd (HLA-A*31:01; [3]) of 40.2 nM and a Kd (HLA-A*03:01; [3]) of 8560 nM. It also gave a Kd (HLA-A*11:01; [3]) of 1110 nM and a Kd (HLA-A*68:01; [3]) of 3310 nM.

Sequence VSMTYLYNK has a Kd (HLA-A*33:01; [3]) of 806 nM, a Kd (HLA-A*31:01; [3]) of 2.76 nM and a Kd (HLA-A*03:01; [3]) of 72.5 nM. For the same sequence, the Kd (HLA-A*11:01; [3]) was 1.36 nM and the Kd (HLA-A*68:01; [3]) was 82.7 nM.

With VTLAILTALR the Kd (HLA-A*33:01; [1]) was 310 nM, the Kd (HLA-A*31:01; [1]) was 13.4 nM and the Kd (HLA-A*03:01; [1]) was 218 nM. It also gave a Kd (HLA-A*11:01; [1]) of 149 nM and a Kd (HLA-A*68:01; [1]) of 14.1 nM.

VTTIMFLAR showed a Kd (HLA-A*33:01; [1]) of 167 nM, a Kd (HLA-A*31:01; [1]) of 45.4 nM and a Kd (HLA-A*03:01; [1]) of 329 nM. It also gave a Kd (HLA-A*11:01; [1]) of 24.6 nM and a Kd (HLA-A*68:01; [1]) of 84.6 nM.

In the case of WFFNNYLRK, the Kd (HLA-A*33:01; [1]) is reported as 894 nM, the Kd (HLA-A*31:01; [1]) is reported as 3880 nM and the Kd (HLA-A*03:01; [1]) is reported as 403 nM. For the same sequence, the Kd (HLA-A*11:01; [1]) was 81.8 nM and the Kd (HLA-A*68:01; [1]) was 391 nM.

Sequence YANCSSISIK has a Kd (HLA-A*33:01; [3]) of 18100 nM, a Kd (HLA-A*31:01; [3]) of 4310 nM and a Kd (HLA-A*03:01; [3]) of 452 nM. The Kd (HLA-A*11:01; [3]) was 115 nM and the Kd (HLA-A*68:01; [3]) was 51.7 nM.

With YSKLTKDRK the Kd (HLA-A*33:01; [3]) was at least 23900 nM, the Kd (HLA-A*31:01; [3]) was 4320 nM and the Kd (HLA-A*03:01; [3]) was at least 78000 nM. It also gave a Kd (HLA-A*11:01; [3]) of 4850 nM and a Kd (HLA-A*68:01; [3]) of 52.3 nM.

With YVLGVFLRKL the Kd (HLA-A*02:06; source organism: Dengue virus 4 Dominica/814669/1981) was 81.5 nM.
